We go through 4 molecules from patent US20150322414A1 (UNITED KINGDOM RESEARCH AND INNOVATION, published 2015).

The target of test [1] is Wild-type human Tie2 ectodomain (residues 1-442) surface expression construct on DT40 cells (human) (UniProt P09619). Briefly: flow cytometry, ligand titrated on DT40 cells displaying wild-type Tie2 ectodomain; apparent Kd.
Test [2] deals with T1, Angiopoietin-2 (human, UniProt O15123 19-496, limits assumed).
T1 construct: also called Ang2; biotinylated Ang2
T1 sequence (looked up): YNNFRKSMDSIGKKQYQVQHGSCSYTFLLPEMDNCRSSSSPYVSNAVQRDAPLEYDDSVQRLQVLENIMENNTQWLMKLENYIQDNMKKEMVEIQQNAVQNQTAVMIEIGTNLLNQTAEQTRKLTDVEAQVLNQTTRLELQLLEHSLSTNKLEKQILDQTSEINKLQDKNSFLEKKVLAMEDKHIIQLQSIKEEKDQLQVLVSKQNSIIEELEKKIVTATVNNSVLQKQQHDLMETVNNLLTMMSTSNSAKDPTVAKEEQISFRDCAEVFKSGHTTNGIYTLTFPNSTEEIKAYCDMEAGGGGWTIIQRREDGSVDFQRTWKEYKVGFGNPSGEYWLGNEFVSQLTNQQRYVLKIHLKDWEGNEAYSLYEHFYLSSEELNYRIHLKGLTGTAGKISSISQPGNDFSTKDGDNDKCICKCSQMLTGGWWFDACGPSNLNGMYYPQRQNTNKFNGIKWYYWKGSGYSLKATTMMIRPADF
Briefly: SPR (ForteBio Octet), ectodomain-Fc immobilised; wild-type ectodomain. As to the method: (§1) Surface plasmon resonance was performed using a ForteBio Octet instrument (Pall Life Sciences). Fusion proteins were immobilised at 5 μg/ml on sensors and kinetic binding assays perfoinied as detailed by the manufacturer.

Test [3] deals with T2, Angiopoietin-1 (human, UniProt Q15389 20-498, limits assumed).
T2 construct: also called Ang1; His6-tagged Ang1
T2 sequence (looked up): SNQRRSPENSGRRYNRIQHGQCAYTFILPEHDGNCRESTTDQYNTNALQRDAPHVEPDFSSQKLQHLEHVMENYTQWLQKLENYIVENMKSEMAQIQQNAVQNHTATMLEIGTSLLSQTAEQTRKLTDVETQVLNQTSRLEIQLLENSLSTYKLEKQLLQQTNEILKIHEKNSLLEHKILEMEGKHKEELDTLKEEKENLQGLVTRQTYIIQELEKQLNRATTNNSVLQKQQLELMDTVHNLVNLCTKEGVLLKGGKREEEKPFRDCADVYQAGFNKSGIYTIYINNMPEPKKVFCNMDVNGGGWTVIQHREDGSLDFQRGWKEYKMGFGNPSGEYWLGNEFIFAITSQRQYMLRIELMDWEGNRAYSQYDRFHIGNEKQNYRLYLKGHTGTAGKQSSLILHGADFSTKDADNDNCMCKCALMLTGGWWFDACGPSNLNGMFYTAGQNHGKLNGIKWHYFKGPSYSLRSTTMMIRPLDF
The test is described as follows: SPR as named in the filing, panel headed 'Binding of Wt and R3 I161G mutant to Ang1', concentrations not given. As to the method: as §1

The target of test [4] is T1, Angiopoietin-2. The test is described as follows: SPR as named in the filing, panel headed 'Binding of R3 and R3 I161G binding to Ang2', concentrations not given. As for the experimental part: as §1
Test [5] deals with T1, Angiopoietin-2. Briefly: SPR (ForteBio Octet), ectodomain-Fc immobilised; evolved (R3) ectodomain. As to the method:
as §1

The target in test [6] is T2, Angiopoietin-1. The test is described as follows: SPR as named in the filing (ForteBio Octet), ectodomain-Fc immobilised on the sensor, Ang1 in solution, concentrations not given. As for the experimental part: as §1

Chain of Wild-type human Tie2 ectodomain (residues 1-442) surface expression construct on DT40 cells (human) (P09619 514-562 limits assumed, form in doubt): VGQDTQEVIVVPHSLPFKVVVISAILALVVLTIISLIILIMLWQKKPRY

For the molecule “Angiopoietin-1 (from UniProt Q15389 20-498) (ligand)”, the Kd in test [1] came out at 0.7 nM.

B1: Wild-type Tie2 ectodomain (1-442)-Fc fusion protein (Fc fusion)
chain (part 1 of 2): AMDLILINSLPLVSDAETSLTCIASGWRPHEPITIGRDFEALMNQHQDPLEVTQDVTREWAKKVVWKREKASKINGAYFCEGRVRGEAIRIRTMKMRQQASFLPATLTMTVDKGDNVNISFKKVLIKEEDAVIYKNGSFIHSVPRHEVPDILEVHLPHAQPQDAGVYSARYIGGNLFTSAFTRLIVRRCEAQKWGPECNHLCTACMNNGVCHEDTGECICPPGFMGRTCEKACELHTFGRTCKERCSGQEGCKSYVFCLPDPYGCSCATGWKGLQCNEACHPGFYGPDCKLRCSCNNGEMCDRFQGCLCSPGWQGLQCEREGIQRMTPKIVDLPDHIEVNSGKFNPICKASGWPLPTNEEMTLVKPDGTVLHPKDFNHTDHFSVAIFTIHRILPPDSGVWVCSVNTVAGMVEKPFNISVK
chain (part 2 of 2): HHHHHH
notes: Secreted from HEK293 cells, about 80 kDa, purified on Ni-NTA; also called wild-type ectodomain; Wt; not shown: human Fc tag
Turning to B1, the Kd in the test with Angiopoietin-2 [2] was determined as 4.1 nM.

B2: R3 I161G mutant Tie2 ectodomain (Glycine at 161, deleted at R167 and H168) (Fc fusion)
chain: AMDLILINSLPLVSDAETSLTCIASGWRPHEPITIGRDFEALMNQHQDPLEVTQDVTREWAKKVVWKREKASKINGAYFCEGRVRGEAIRIRTMKMRQQASFLPATLTMTVDKGDNVNISFKKVLIKEEDAVIYKNGSGIHSVPEVPDILEVHLPHAQPQDAGVYSARYIGGNLFTSAFTRLIVRRCEAQKWGPECNHLCTACMNNGVCHEDTGECICPPGFMGRTCEKACELHTFGRTCKERCSGQEGCKSYVFCLPDPYGCSCATGWKGLQCNEACHPGFYGPDCKLRCSCNNGEMCDRFQGCLCSPGWQGLQCEREGIQRMTPKIVDLPDHIEVNSGKFNPICKASGWPLPTNEEMTLVKPDGTVLHPKDFNHTDHFSVAIFTIHRILPPDSGVWVCSVNTVAGMVEKPFNISVK
notes: also called new mutant; improved Ang2 ligand-trap; not shown: the other soluble ectodomains carried a human Fc tag and His6
For the molecule B2, the binding result with Angiopoietin-1 [3] is listed as “no binding”; with Angiopoietin-2 [4], “binds”.

B3: Evolved (R3) Tie2 ectodomain-Fc fusion protein (F161I, ΔR167, ΔH168) (Fc fusion)
chain (part 1 of 2): AMDLILINSLPLVSDAETSLTCIASGWRPHEPITIGRDFEALMNQHQDPLEVTQDVTREWAKKVVWKREKASKINGAYFCEGRVRGEAIRIRTMKMRQQASFLPATLTMTVDKGDNVNISFKKVLIKEEDAVIYKNGSIIHSVPEVPDILEVHLPHAQPQDAGVYSARYIGGNLFTSAFTRLIVRRCEAQKWGPECNHLCTACMNNGVCHEDTGECICPPGFMGRTCEKACELHTFGRTCKERCSGQEGCKSYVFCLPDPYGCSCATGWKGLQCNEACHPGFYGPDCKLRCSCNNGEMCDRFQGCLCSPGWQGLQCEREGIQRMTPKIVDLPDHIEVNSGKFNPICKASGWPLPTNEEMTLVKPDGTVLHPKDFNHTDHFSVAIFTIHRILPPDSGVWVCSVNTVAGMVEKPFNISVK
chain (part 2 of 2): HHHHHH
notes: also called R3 ectodomain; evolved ectodomain; not shown: human Fc tag
In turn, B3 had a Kd with Angiopoietin-2 [5] of 2.4 nM. In addition, the binding result in the test with Angiopoietin-1 [6] is “no binding”.
